Publication PMC3268813

Columns and labels:
[1] = molecular target: synthetic phospho-S463 CRN2 coiled coil peptide (human) (UniProt Q9ULV4); experiment: small-angle X-ray scattering
[2] = molecular target: synthetic phospho-S463 CRN2 coiled coil peptide (human) (UniProt Q9ULV4); experiment: SEC-MALS

stoichiometry N [1]: 3
stoichiometry N [2]: 3
Substance: synthetic phospho-S463 CRN2 coiled coil peptide (from UniProt Q9ULV4 435-474)
